# Patent US20120288494A1 (published 2012)
# B1: J695 (antibody, IgG1, V domains shown)
# VH: QVQLVESGGGVVQPGRSLRLSCAASGFTFSSYGMHWVRQAPGKGLEWVAFIRYDGSNKYYADSVKGRFTISRDNSKNTLYLQMNSLRAEDTAVYYCKTHGSHDNWGQGTMVTVSS
# VL: QSVLTQPPSVSGAPGQRVTISCSGSRSNIGSNTVKWYQQLPGTAPKLLIYYNDQRPSGVPDRFSGSKSGTSASLAITGLQAEDEADYYCQSYDRYTHPALLFGTGTKVTVLG
# notes: Recombinant human mAb from CHO cells, IgG1 heavy and lambda light chain constant regions; also called human mAb J695
# B2: 103-14 (antibody, V domains shown)
# VH: QVQLVQSGGGVVQPGRSLRLSCAASGFTFSSYGMHWVRQAPGKGLEWVAFIRYDGSNKYYADSVKGRFTISRDNSKNTLYLQMKSLRAEDTAVYYCKTHGSHDNWGQGTMVTVSS
# VL: SYVLTQPPSVSGTPGQRVTISCSGGRSNIGSNTVKWYQQLPGTAPKLLIYGNDQRPSGVPDRFSGSKSGTSASLAITGVQAEDEADYYCQSYDRGFTGSMVFGTGTKVTVL
# Assays:
# [1] = target: T1, Human Chimera 2 (human IL-12 p40 D87N) (human, UniProt P29460 23-328); experiment: SPR (Biacore), mAb immobilised, chimera supernatant injected
# T1 construct: Predominantly human p40 with the rat residue; HEK293.F supernatant; also called Site 7b
# T1 sequence: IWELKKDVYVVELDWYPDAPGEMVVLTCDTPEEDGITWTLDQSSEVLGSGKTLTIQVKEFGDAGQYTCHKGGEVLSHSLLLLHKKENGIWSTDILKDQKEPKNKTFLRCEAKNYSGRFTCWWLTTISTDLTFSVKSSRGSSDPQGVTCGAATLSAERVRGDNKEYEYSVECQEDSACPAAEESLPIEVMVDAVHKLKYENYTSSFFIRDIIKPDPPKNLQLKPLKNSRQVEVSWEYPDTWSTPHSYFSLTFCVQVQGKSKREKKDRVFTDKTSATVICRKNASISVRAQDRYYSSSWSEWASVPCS
# Procedure: (§1) Specifically, antibody was covalently linked via free amine groups to the Biacore chip dextran matrix by first activating carboxyl groups on the matrix with 100 mM N-hydroxysuccinimide (NHS) and 400 mM N-Ethyl-N′-(3-dimethylaminopropyl)-carbodiimide hydrochloride (EDC). This was completed across four different flow cells. […] Typically, 5000 resonance units were immobilized. Unreacted matrix EDC-esters were deactivated by an injection of 1 M ethanolamine.
# (§2) To ascertain the epitope pattern of several different monoclonal antibodies against IL-12p40 supernatant samples, a direct binding assay was conducted. Aliquots of recombinant human IL-12p40 (100 nM) were injected across covalently immobilized antibody on the Biacore dextran chip biosensor surface at a flow rate of 25 mL/min. Before injection of the antigen and immediately afterward, HBS-EP buffer alone flowed through each flow cell. […] The response was measured in Resonance Units (RU's). […] The covalently immobilized antibody-coupled surfaces were completely regenerated using 10 mM HCl (5 min contact time) and retained their full binding capacity over twenty cycles.
# [2] = target: T2, Human Chimera 1 (human IL-12 p40 Y16R) (human, UniProt P29460 23-328); experiment: as above
# T2 construct: Predominantly human p40 with the rat residue; HEK293.F supernatant; also called Site 7a
# T2 sequence: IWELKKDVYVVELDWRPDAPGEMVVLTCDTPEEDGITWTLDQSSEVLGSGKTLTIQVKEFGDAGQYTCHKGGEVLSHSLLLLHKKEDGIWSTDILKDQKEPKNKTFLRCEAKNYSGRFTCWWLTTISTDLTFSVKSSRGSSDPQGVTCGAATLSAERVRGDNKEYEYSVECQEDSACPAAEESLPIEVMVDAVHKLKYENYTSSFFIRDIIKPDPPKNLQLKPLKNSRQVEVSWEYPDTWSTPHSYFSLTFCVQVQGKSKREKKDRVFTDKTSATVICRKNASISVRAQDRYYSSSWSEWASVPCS
# Procedure: as §1, §2
# [3] = target: T3, Human Chimera 9 (human IL-12 p40 G35D & G61L) (human, UniProt P29460 23-328); experiment: SPR (Biacore), mAb immobilised; grade of the mutation's effect: - = no effect
# T3 construct: Predominantly human p40 with rat residues; the two residues were only mutated together; also called Sites 9, 10
# T3 chain: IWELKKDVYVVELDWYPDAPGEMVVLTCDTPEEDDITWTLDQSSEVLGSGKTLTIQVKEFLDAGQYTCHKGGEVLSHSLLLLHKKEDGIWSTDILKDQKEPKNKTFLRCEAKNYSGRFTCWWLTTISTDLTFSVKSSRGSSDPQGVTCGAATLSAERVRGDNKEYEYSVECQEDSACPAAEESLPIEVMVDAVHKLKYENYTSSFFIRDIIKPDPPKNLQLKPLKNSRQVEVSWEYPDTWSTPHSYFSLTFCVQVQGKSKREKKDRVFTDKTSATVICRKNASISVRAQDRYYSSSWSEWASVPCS
# Procedure: as §1, §2
# human IL-12 p70 [4] = target: T4, human IL-12 p70 (human, UniProt P29460 23-328; P29459 23-219); experiment: method not stated in the sentence (Biacore named in Example 1A)
# T4 construct: also called hIL-12; IL-12 p70 (p40/p35)
# T4 sequence 1: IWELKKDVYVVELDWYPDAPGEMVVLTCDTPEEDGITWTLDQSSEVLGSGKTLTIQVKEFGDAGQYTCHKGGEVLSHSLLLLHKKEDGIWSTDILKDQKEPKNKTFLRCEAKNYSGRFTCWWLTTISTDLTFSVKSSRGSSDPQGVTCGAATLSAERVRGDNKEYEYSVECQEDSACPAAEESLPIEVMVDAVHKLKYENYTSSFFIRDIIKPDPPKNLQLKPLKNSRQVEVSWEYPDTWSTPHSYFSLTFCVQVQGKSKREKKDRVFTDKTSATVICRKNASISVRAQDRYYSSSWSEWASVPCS
# T4 sequence 2: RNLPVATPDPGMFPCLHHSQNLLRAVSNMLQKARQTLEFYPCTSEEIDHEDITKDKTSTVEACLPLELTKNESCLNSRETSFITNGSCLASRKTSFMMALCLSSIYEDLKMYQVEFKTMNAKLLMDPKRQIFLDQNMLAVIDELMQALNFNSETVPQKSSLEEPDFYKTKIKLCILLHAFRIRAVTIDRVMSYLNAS
# human IL-12 p70 [5] = target: T4, human IL-12 p70; experiment: not stated in the sentence (FIG. 2)
binder,measurement,setting,value
B1,binding result,[1],no binding
same,binding result,[2],no binding
same,binding result,[3],binds
same,Kd,human IL-12 p70 [4],102 pM
B2,fold increase in efficacy over Joe 9,human IL-12 p70 [5],1000 fold
